Results taken from US20230381328A1, “COMPOUND FOR THE PREVENTION OR TREATMENT OF MYASTHENIA GRAVIS” (ABLEVIA BIOTECH GMBH, priority 2020, published 2023).
Where no end group is shown, it is not given here.

Assays:
[1] = biological target: monoclonal antibody mAB 198; experiment: peptide microarray, fluorescence, cyclic peptide
[2] = biological target: monoclonal antibody mAB 198; experiment: peptide microarray, fluorescence, linear peptide

Binder | relative signal [%] [1] | relative signal [%] [2]
VRLRWNPADYP (also: cyclic peptide, mode of cyclisation not given here) […, cyclic mimotope] | 100% | –
IDVRLRFNPAD | – | 7.9%
NPDDYGH [NPDDYGH, linear mimotope] | – | 7.7%
VPLRWNPAD | – | 7.6%
YNLPWNP [YNL PWNP, linear mimotope] | – | 7.6%
VDYNLKFNP | – | 7.6%
HWNPADY [HWNPADY, linear mimotope] | – | 7.4%
GSLRYNP [GSLRYNP, linear mimotope] | – | 34.4%
RTNPADY [RTNPADY, linear mimotope] | – | 7.2%
LRWNPADYHGI | – | 7.2%
GGGSLRYNP | – | 7.1%
RLRGNPADY | – | 6.9%
RGNPADY [RGNPADY, linear mimotope] | – | 6.9%
VDCNLKFNP | – | 6.8%
DVRLRWNPSDY | – | 6.8%
RIRWNPADY | – | 6.8%
HRLRWNPAD | – | 6.7%
SLRVNPADY | – | 6.7%
LRVNPADYG | – | 31.6%
CNLKYNP [CNLKYNP, linear mimotope] | – | 6.7%
HSLRWNPAD | – | 6.6%
NPADYGN [NPADYGN, linear mimotope] | – | 6.5%
LRWNPADYPGI | – | 6.5%
RLRYNPADY | – | 6.5%
SLRFNPADY | – | 6.5%
QWVDCNLKFNP | – | 6.4%
LRPNPADYG | – | 6.1%
VDCNLKYNP | – | 6.1%
ALRWNPADY | – | 6%
